Measurements as given in patent US20230220589A1.

Columns and labels:
[1] = biological target: M44-modified A NTAA target peptides (M44-A-P2-peptide); assay: encoding assay; P2 A
[2] = biological target: M44-modified F NTAA target peptides (M44-F-P2-peptide); assay: encoding assay; P2 A;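 note: fraction of recording tags encoded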
[3] = biological target: M44-modified G NTAA target peptides (M44-G-P2-peptide); assay: encoding assay; P2 A;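 note: fraction of recording tags encoded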
[4] = biological target: M44-modified H NTAA target peptides; assay: encoding assay; P2 A
[5] = biological target: M44-modified I NTAA target peptides (M44-I-P2-peptide); assay: encoding assay; P2 A
[6] = biological target: M44-modified L NTAA target peptides (M44-L-P2-peptide); assay: encoding assay; P2 A;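 note: fraction of recording tags encoded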
[7] = biological target: M44-modified M NTAA target peptides; assay: encoding assay; P2 A
[8] = biological target: M44-modified N NTAA target peptides; assay: encoding assay; P2 A
[9] = biological target: M44-modified Q NTAA target peptides; assay: encoding assay; P2 A
[10] = biological target: M44-modified V NTAA target peptides; assay: encoding assay; P2 A;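 note: fraction of recording tags encoded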
[11] = biological target: M44-modified W NTAA target peptides; assay: encoding assay; P2 A;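 note: fraction of recording tags encoded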
[12] = biological target: M44-modified Y NTAA target peptides (M44-Y-P2-peptide); assay: encoding assay; P2 A;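 note: fraction of recording tags encoded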
[13] = biological target: M44-modified A NTAA target peptides (M44-A-P2-peptide); assay: encoding assay; P2 D
[14] = biological target: M44-modified F NTAA target peptides (M44-F-P2-peptide); assay: encoding assay; P2 D;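 note: fraction of recording tags encoded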
[15] = biological target: M44-modified G NTAA target peptides (M44-G-P2-peptide); assay: encoding assay; P2 D;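 note: fraction of recording tags encoded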
[16] = biological target: M44-modified I NTAA target peptides (M44-I-P2-peptide); assay: encoding assay; P2 D
[17] = biological target: M44-modified L NTAA target peptides (M44-L-P2-peptide); assay: encoding assay; P2 D;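 note: fraction of recording tags encoded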
[18] = biological target: M44-modified M NTAA target peptides; assay: encoding assay; P2 D
[19] = biological target: M44-modified N NTAA target peptides; assay: encoding assay; P2 D
[20] = biological target: M44-modified Q NTAA target peptides; assay: encoding assay; P2 D
[21] = biological target: M44-modified W NTAA target peptides; assay: encoding assay; P2 D;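 note: fraction of recording tags encoded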
[22] = biological target: M44-modified Y NTAA target peptides (M44-Y-P2-peptide); assay: encoding assay; P2 D;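 note: fraction of recording tags encoded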
[23] = biological target: M44-modified A NTAA target peptides (M44-A-P2-peptide); assay: encoding assay; P2 F
[24] = biological target: M44-modified L NTAA target peptides (M44-L-P2-peptide); assay: encoding assay; P2 F;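 note: fraction of recording tags encoded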
[25] = biological target: M44-modified E NTAA target peptides; assay: encoding assay; P2 G;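 note: fraction of recording tags encoded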
[26] = biological target: M44-modified F NTAA target peptides (M44-F-P2-peptide); assay: encoding assay; P2 G;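 note: fraction of recording tags encoded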
[27] = biological target: M44-modified I NTAA target peptides (M44-I-P2-peptide); assay: encoding assay; P2 G
[28] = biological target: M44-modified L NTAA target peptides (M44-L-P2-peptide); assay: encoding assay; P2 G;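 note: fraction of recording tags encoded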
[29] = biological target: M44-modified M NTAA target peptides; assay: encoding assay; P2 G
[30] = biological target: M44-modified Q NTAA target peptides; assay: encoding assay; P2 G
[31] = biological target: M44-modified T NTAA target peptides; assay: encoding assay; P2 G
[32] = biological target: M44-modified V NTAA target peptides; assay: encoding assay; P2 G;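 note: fraction of recording tags encoded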
[33] = biological target: M44-modified W NTAA target peptides; assay: encoding assay; P2 G;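 note: fraction of recording tags encoded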
[34] = biological target: M44-modified Y NTAA target peptides (M44-Y-P2-peptide); assay: encoding assay; P2 G;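 note: fraction of recording tags encoded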
[35] = biological target: M44-modified A NTAA target peptides (M44-A-P2-peptide); assay: encoding assay; P2 W
[36] = biological target: M44-modified D NTAA target peptides; assay: encoding assay; P2 W;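 note: fraction of recording tags encoded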
[37] = biological target: M44-modified F NTAA target peptides (M44-F-P2-peptide); assay: encoding assay; P2 W;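 note: fraction of recording tags encoded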
[38] = biological target: M44-modified G NTAA target peptides (M44-G-P2-peptide); assay: encoding assay; P2 W;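 note: fraction of recording tags encoded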
[39] = biological target: M44-modified H NTAA target peptides; assay: encoding assay; P2 W
[40] = biological target: M44-modified I NTAA target peptides (M44-I-P2-peptide); assay: encoding assay; P2 W
[41] = biological target: M44-modified L NTAA target peptides (M44-L-P2-peptide); assay: encoding assay; P2 W;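 note: fraction of recording tags encoded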
[42] = biological target: M44-modified M NTAA target peptides; assay: encoding assay; P2 W
[43] = biological target: M44-modified N NTAA target peptides; assay: encoding assay; P2 W
[44] = biological target: M44-modified P NTAA target peptides; assay: encoding assay; P2 W;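 note: fraction of recording tags encoded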
[45] = biological target: M44-modified Q NTAA target peptides; assay: encoding assay; P2 W
[46] = biological target: M44-modified S NTAA target peptides; assay: encoding assay; P2 W
[47] = biological target: M44-modified T NTAA target peptides; assay: encoding assay; P2 W
[48] = biological target: M44-modified V NTAA target peptides; assay: encoding assay; P2 W;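 note: fraction of recording tags encoded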
[49] = biological target: M44-modified W NTAA target peptides; assay: encoding assay; P2 W;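 note: fraction of recording tags encoded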
[50] = biological target: M44-modified Y NTAA target peptides (M44-Y-P2-peptide); assay: encoding assay; P2 W;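 note: fraction of recording tags encoded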

B1: engineered M44-L binder (SEQ ID NO: 31) (designed binder, not shown: small tags and cut ends; large carriers)
chain: QDSTQNLIPAPPLISVPLQPGFWTERFQGRWFLVGFAGNAVQKERQSRLTMQSLILELQEDNSYNITAINVRGQGCRYIISTLVPSSRPGQFTLGNIHSYPQIQSLDVQVADTDYDQFAMVFLQGTSENKQYFEVALAGRTKGLSDELKERFVSFAKSLGLKDNNIVFSVPTDQCIDN
encoding yield [1]: 0.02 | encoding yield [2]: 0.11 | encoding yield [3]: 0.03 | encoding yield [4]: 0.01 | encoding yield [5]: 0.07 | encoding yield [6]: 0.14 | encoding yield [7]: 0.05 | encoding yield [8]: 0.02 | encoding yield [9]: 0.02 | encoding yield [10]: 0.02 | encoding yield [11]: 0.08 | encoding yield [12]: 0.04 | encoding yield [13]: 0.03 | encoding yield [14]: 0.03 | encoding yield [15]: 0.02 | encoding yield [16]: 0.01 | encoding yield [17]: 0.04 | encoding yield [18]: 0.02 | encoding yield [19]: 0.02 | encoding yield [20]: 0.02 | encoding yield [21]: 0.02 | encoding yield [22]: 0.03 | encoding yield [23]: 0.05 | encoding yield [24]: 0.13 | encoding yield [25]: 0.02 | encoding yield [26]: 0.09 | encoding yield [27]: 0.09 | encoding yield [28]: 0.09 | encoding yield [29]: 0.02 | encoding yield [30]: 0.01 | encoding yield [31]: 0.04 | encoding yield [32]: 0.02 | encoding yield [33]: 0.04 | encoding yield [34]: 0.03 | encoding yield [35]: 0.05 | encoding yield [36]: 0.04 | encoding yield [37]: 0.27 | encoding yield [38]: 0.01 | encoding yield [39]: 0.04 | encoding yield [40]: 0.25 | encoding yield [41]: 0.17 | encoding yield [42]: 0.05 | encoding yield [43]: 0.04 | encoding yield [44]: 0.02 | encoding yield [45]: 0.03 | encoding yield [46]: 0.07 | encoding yield [47]: 0.03 | encoding yield [48]: 0.08 | encoding yield [49]: 0.17 | encoding yield [50]: 0.11

B2: engineered M44-L binder (SEQ ID NO: 21) (designed binder, not shown: small tags and cut ends; large carriers)
chain: QVSVQPNFQQDKFLGRWFYAGHASNSSWYREKVAALSMAKLVVAPATDGGLNATETFLRKNQCETITSLLQPAGSLGSYSSRSPHGGSTWSTSVVETDYDQYALLYLQGSKGPGEDFRGAILASRTQTPRAELKEKFTAFSKAQGFTEDTIVFLPQTDKCMTEQ
encoding yield [1]: 0.01 | encoding yield [2]: 0.07 | encoding yield [3]: 0.01 | encoding yield [4]: 0.01 | encoding yield [5]: 0.29 | encoding yield [6]: 0.19 | encoding yield [7]: 0.06 | encoding yield [8]: 0.01 | encoding yield [9]: 0.01 | encoding yield [10]: 0.01 | encoding yield [11]: 0.01 | encoding yield [12]: 0.01 | encoding yield [13]: 0.01 | encoding yield [14]: 0.01 | encoding yield [15]: 0.01 | encoding yield [16]: 0 | encoding yield [17]: 0.01 | encoding yield [18]: 0.01 | encoding yield [19]: 0.01 | encoding yield [20]: 0.01 | encoding yield [21]: 0.01 | encoding yield [22]: 0.01 | encoding yield [23]: 0.01 | encoding yield [24]: 0.06 | encoding yield [25]: 0.01 | encoding yield [26]: 0.03 | encoding yield [27]: 0.17 | encoding yield [28]: 0.07 | encoding yield [29]: 0.01 | encoding yield [30]: 0.01 | encoding yield [31]: 0.02 | encoding yield [32]: 0.02 | encoding yield [33]: 0.01 | encoding yield [34]: 0.01 | encoding yield [35]: 0.01 | encoding yield [36]: 0.01 | encoding yield [37]: 0.09 | encoding yield [38]: 0.01 | encoding yield [39]: 0.01 | encoding yield [40]: 0.14 | encoding yield [41]: 0.03 | encoding yield [42]: 0.01 | encoding yield [43]: 0.01 | encoding yield [44]: 0.01 | encoding yield [45]: 0.01 | encoding yield [46]: 0.02 | encoding yield [47]: 0.01 | encoding yield [48]: 0.03 | encoding yield [49]: 0.03 | encoding yield [50]: 0.02
